From publication PMC8343073

Tests used:
[1] = test system: DdbA (Chlamydia trachomatis L2); experiment: BLI; details: BLI (Octet QKe, Ni-NTA sensors, His-protein immobilized): 0.1 M phosphate, 0.15 M NaCl, pH 7.2; nucleic acid 720, 240, 80 nM; temperature not stated
[2] = test system: HctA (Chlamydia trachomatis L2); experiment: BLI; details: BLI (Octet QKe, Ni-NTA sensors, His-protein immobilized): 0.1 M phosphate, 0.15 M NaCl, pH 7.2; nucleic acid 720, 240, 80 nM; temperature not stated

dsDNA oligo 60% GC
Kd [1]: 7.3 nM | Kd [2]: 2.3 nM
